Measured values as given in US20150322445A1.
Values belong to the molecule of their own block, whether it stands above or below them.

Assays:
[1] = target: Leavenworthia alabamica Lal2 polypeptide, a1-1 allele (Leavenworthia alabamica); assay: cell-based or functional assay
[2] = target: Leavenworthia alabamica Lal2 polypeptide, a1-2 allele (Leavenworthia alabamica); assay: cell-based or functional assay
Leavenworthia alabamica Lal2 polypeptide, a1-2 allele (Leavenworthia alabamica), sequence (main, as listed by the source): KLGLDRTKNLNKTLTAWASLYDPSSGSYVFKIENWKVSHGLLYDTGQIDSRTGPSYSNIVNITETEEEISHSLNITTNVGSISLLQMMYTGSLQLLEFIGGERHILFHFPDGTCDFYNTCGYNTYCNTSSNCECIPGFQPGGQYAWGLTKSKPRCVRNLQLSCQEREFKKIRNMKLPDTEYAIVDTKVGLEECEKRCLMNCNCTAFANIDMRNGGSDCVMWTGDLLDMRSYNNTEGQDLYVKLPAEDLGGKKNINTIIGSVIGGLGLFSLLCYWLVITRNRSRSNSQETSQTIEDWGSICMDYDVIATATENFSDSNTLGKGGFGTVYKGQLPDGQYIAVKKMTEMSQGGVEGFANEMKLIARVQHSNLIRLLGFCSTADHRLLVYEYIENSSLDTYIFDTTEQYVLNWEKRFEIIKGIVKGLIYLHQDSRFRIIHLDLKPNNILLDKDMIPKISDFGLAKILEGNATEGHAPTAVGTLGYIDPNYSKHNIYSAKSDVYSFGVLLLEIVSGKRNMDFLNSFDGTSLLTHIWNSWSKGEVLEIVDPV

Leavenworthia alabamica Lal2 polypeptide, a1-1 allele (Leavenworthia alabamica), sequence (chain, as listed by the source limits assumed, form in doubt): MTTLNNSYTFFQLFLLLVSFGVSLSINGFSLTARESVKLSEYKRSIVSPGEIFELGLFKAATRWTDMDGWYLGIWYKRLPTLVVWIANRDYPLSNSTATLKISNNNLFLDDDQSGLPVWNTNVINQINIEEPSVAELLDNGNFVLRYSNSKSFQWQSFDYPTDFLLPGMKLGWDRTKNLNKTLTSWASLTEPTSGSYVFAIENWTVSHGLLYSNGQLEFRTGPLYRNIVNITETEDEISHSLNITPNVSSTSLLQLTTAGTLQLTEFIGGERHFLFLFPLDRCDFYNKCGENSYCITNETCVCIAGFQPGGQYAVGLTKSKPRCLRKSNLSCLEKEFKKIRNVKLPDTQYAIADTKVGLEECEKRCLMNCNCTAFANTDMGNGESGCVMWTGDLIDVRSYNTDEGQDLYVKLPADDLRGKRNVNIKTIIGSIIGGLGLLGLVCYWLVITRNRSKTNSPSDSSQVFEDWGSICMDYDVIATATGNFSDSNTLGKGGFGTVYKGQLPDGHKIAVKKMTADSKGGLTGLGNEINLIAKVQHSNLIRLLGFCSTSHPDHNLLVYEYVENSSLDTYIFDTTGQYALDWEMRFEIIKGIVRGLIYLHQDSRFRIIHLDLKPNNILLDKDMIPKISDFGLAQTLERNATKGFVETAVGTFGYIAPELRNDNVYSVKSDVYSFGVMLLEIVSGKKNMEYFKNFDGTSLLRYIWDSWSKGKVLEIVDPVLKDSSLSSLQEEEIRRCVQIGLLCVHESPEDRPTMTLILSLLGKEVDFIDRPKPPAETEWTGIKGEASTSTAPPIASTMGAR

Pollen rejection reactions observed (fewer than ten pollen tubes in the pistil); female line 1-15 (Lal2 transformant) x male line 3-13 (SCRL transformant), 5 crosses [1]: 3 of 5 crosses
Molecule: Leavenworthia alabamica SCRL polypeptide, a1-1 allele

Pollen rejection reactions observed (fewer than ten pollen tubes in the pistil); female line 1-15 (Lal2 transformant) x male line 4-21 (SCRL transformant), 5 crosses [1]: 3 of 5 crosses
Pollen rejection reactions observed (fewer than ten pollen tubes in the pistil); female line 1-25 (Lal2 transformant) x male line 3-13 (SCRL transformant), 5 crosses [1]: 4 of 5 crosses
Pollen rejection reactions observed (fewer than ten pollen tubes in the pistil); female line 1-25 (Lal2 transformant) x male line 4-21 (SCRL transformant), 5 crosses [1]: 1 of 5 crosses
Molecule: Leavenworthia alabamica SCRL polypeptide, a1-1 allele (ligand)

Crosses that produced fruit or had germinated pollen tubes; a1-2 recipient plant x a2 pollen donors (% of 9 crosses) [2]: 89
Molecule: MAKSVRLISFIIYLTINMLIFAVNPKPHSSQVPPIPDPGKHRRCF (ligand) [Leavenworthia alabamica SCRL, a2 allele (truncated protein)]
